Substitutions are numbered along the chain they refer to. Numbers in names are those of the source.
Tests used:
[1] = molecular target: T1, CEACAM1 (Sino Biological) (human, UniProt P13688 35-428, limits assumed); test: single-point competition ELISA: crude periplasmic scFv extract mixed 1:1 with VH2 N56Q/Vk4 S27(f)A IgG (0.246 µg/mL) on plate-coated CEACAM1 (0.0625 µg/mL); remaining IgG detected with anti-human-HRP, absorbance 450 nm
T1 construct: may be the same as CEACAM1-HIS; also called hCEACAM1; biotinylated soluble CEACAM1
T1 sequence: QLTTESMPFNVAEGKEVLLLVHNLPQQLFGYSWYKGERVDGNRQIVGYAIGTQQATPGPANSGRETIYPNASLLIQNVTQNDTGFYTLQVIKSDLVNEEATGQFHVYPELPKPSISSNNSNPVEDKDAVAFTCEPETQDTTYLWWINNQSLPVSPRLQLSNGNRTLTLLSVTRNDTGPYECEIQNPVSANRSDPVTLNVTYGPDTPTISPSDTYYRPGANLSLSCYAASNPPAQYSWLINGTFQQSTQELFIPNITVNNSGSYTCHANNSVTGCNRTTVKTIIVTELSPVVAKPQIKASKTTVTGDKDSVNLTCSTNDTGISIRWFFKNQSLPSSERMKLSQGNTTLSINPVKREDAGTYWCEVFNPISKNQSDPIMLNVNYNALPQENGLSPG
Method: Nunc Immuno MaxiSorp 96 well flat bottom microtitre plates were coated with CEACAM1 at 0.0625 μg/ml overnight. Plates were subsequently washed and blocked for 1 hour at room temperature with 3% BSA/PBS. Periplasmic extracts were diluted 1:1 with VH2 N56Q/Vk4 S27(f)A IgG (parental RSB02 IgG) at 0.246 μg/mL in 6% BSA/PBS. The diluted periplasmic extract was then added to the blocked plate (100 μL per well) and the samples incubated on the plate for 1 hour at room temperature. Plates were subsequently washed and the binding of VH2 N56Q/Vk4 S27(f)A IgG was detected with an anti-human-HRP antibody (Sigma, Gillingham, UK) and TMB substrate (Invitrogen). The reaction was stopped with 1 M HCl, absorbance read at 450 nm on a Dynex Technologies MRX TC II plate reader and the binding data plotted.
Improved clones were identified on the basis of activity in the competition ELISA relative to the parental RSB02 scFv assayed on the same plate. Greater than 7300 peripreps were analyzed in total from all three libraries. Positive hits were picked into ‘cherry’ plates, re-tested within the competition ELISA to confirm results and sequenced. Dominant single sequence clones were identified in both the VH B1 (˜41% of clones sequenced after round 3 were a single dominant clone) and VL libraries (˜20% of clones were single dominant clones from those sequenced from round 3 and 4).

[2] = molecular target: T2, CEACAM6 on transfected HeLa cells (UniProt P40199 35-320, limits assumed); test: flow cytometry, transfected HeLa
T2 construct: whole, on cells; also called C6
T2 sequence (looked up): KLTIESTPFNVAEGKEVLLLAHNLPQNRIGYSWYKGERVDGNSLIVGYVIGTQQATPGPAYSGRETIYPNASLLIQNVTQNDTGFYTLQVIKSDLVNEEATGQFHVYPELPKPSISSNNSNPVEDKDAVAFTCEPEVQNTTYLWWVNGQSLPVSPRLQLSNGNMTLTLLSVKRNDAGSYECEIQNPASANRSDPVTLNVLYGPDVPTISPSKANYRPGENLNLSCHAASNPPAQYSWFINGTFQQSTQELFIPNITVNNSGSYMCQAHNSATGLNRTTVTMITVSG
Method: (§1) Binding selectivity of the selected antibody variants was assessed by flow cytometry using HeLa cells transfected with vectors expressing CEACAM1, CEACAM5, and CEACAM6, respectively. The resulting cells were used for flow cytometry experiments and were cultured at 37° C., 5.0% CO₂ in Dulbecco's modified Eagle's medium supplemented with 10% fetal bovine serum, penicillin (100 U/ml) and dihydrostreptomycin ([…]). Cell lines were stained with the indicated antibodies followed by fluorochrome-conjugated monoclonal antibody specific for the indicated antibody isotypes such as human IgG4 or mouse IgG1 together with viable dye (DAPI). Data were acquired with a Cytoflex flow cytometer ([…]) and analyzed with FlowJo software (TreeStar, V7.6.5 for Windows).

[3] = molecular target: T3, CEACAM1 on transfected HeLa cells (Homo sapiens (Human), UniProt P13688 35-526); test: flow cytometry, transfected HeLa
T3 construct: also called C1
T3 sequence: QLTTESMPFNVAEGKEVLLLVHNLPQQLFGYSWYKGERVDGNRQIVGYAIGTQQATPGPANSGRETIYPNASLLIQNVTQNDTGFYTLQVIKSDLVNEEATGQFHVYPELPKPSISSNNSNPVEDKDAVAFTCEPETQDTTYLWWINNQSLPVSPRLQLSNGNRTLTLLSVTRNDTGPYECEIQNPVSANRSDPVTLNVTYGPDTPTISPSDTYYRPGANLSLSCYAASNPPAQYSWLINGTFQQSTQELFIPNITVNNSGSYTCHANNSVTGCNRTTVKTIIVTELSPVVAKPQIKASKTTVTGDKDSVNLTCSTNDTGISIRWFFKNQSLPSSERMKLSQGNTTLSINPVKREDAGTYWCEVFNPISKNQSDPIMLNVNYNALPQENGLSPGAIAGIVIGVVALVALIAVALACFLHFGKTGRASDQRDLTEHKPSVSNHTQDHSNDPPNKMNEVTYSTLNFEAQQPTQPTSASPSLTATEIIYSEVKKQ
Method: as §1

[4] = molecular target: T4, human GST-CEACAM1 (human, UniProt P13688 35-141, limits assumed); test: competition ELISA vs murine parent antibody
T4 construct: printed both as GST-CEACAM1 and CEACAM1-GST; also called human CEACAM1-GST protein; hCEACAM1-GST; not shown: GST tag
T4 sequence: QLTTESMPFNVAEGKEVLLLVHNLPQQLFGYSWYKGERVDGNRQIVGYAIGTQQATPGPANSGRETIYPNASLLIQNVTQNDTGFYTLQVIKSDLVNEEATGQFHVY
Method: The binding of the purified chimeric antibody to human CEACAM1 was assessed in a competition ELISA assay. Nunc Immuno MaxiSorp 96 well flat bottom microtitre plates were pre-coated with 1 μg/ml human GST-CEACAM1 in 1×PBS, overnight at 4° C. The following day the plates were blocked for 1 hour at room temperature with 2% BSA/PBS before washing 2× with PBS/0.05% Tween 20 pH 7.4.
The binding of the purified antibodies to human CEACAM1 were assessed in a competition ELISA assay as described above. The ability of each variant to compete against the murine parental antibody for binding to the GST-CEACAM1 was compared to that of the chimeric antibody (VH0/Vκ0), which was included on each plate.

[5] = molecular target: T5, CEACAM1-HIS (Sino Biologics Inc.) (Homo sapiens (Human), UniProt P13688 35-428); test: SPR single-cycle, IgG on Protein A
T5 construct: bought; not shown: His tag
T5 sequence: T1 sequence
Method: As an alternative approach to assess the binding of the antibody combinations and the control antibodies to CEACAM1, a kinetic analysis was performed on a Biacore T200 running Biacore T200 Evaluation Software V2.0.1. All experiments were run at 25° C. with HBS-P+ running buffer (pH 7.4).
In order to assess the binding of all Composite Human Antibody™ variants, single cycle kinetic analysis was performed on the supernatants of all the transiently transfected HEK EBNA cells. Purified chimeric antibody and purified chimeric antibody spiked into HEK EBNA media were used as positive controls. Supernatants were diluted in HBS-P+ to a concentration of 1 μg/mL (as determined by an IgG quantitation ELISA). At the start of each cycle, antibodies were loaded onto Fc2, Fc3 and Fc4 of a Protein A chip and captured at a flow rate of 8 μL/min to give an RU of ˜100. The surface was then allowed to stabilize. Single cycle kinetic data was obtained at a flow rate of […] to minimize any potential mass transfer effects. Multiple repeats of the chimeric antibody were performed to check the stability of the surface and analyte over the kinetic cycles. The signal from the reference channel Fc1 (no antibody) was subtracted from that of Fc2, Fc3 and Fc4 to correct for differences in non-specific binding to a reference surface. A 5 point 2-fold dilution range from 3.125 to 50 nM CEACAM1 without regeneration between each concentration was used. The association phase for the 5 injections of increasing concentrations of CEACAM1 was monitored for 150 seconds and a single dissociation phase was measured for 150 seconds following the last injection of CEACAM1. Regeneration of the Protein A was conducted using 2 injections of 10 mM glycine-HCL pH 1.5 followed by a stabilization period of 500 seconds.
In the raw sensorgrams for the single cycle kinetics, the signal from each antibody blank run (no CEACAM1) was subtracted to correct for differences in surface stability.

[6] = molecular target: T6, CEACAM6 (Sino Biological) (human, UniProt P40199 35-320); test: binding ELISA on plate-coated CEACAM (0.5 µg/mL); antibody at 1.67, 0.062 and 0.0069 µg/mL; signal as % of parent IgG on CEACAM1 at 1.67 µg/mL on the same plate
T6 construct: also called hCEACAM6
T6 sequence (looked up): T2 sequence (looked up)

[7] = molecular target: T7, CEACAM3 (Sino Biological) (human, UniProt P40198 35-155, limits assumed); test: as above
T7 construct: also called hCEACAM3
T7 sequence (looked up): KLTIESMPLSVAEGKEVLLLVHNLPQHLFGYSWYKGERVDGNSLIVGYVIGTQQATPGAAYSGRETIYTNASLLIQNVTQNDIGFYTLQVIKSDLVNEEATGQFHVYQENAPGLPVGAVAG

[8] = molecular target: T1, CEACAM1 (Sino Biological); test: SPR single-cycle
How it was run: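 Humanized affinity-matured IgGs from crude supernatants captured on Protein A to ~100 RU, with CEACAM1 analyte injected at 25–100 nM (three-point, two-fold) in HBS-P+ without regeneration. 200 s association per injection, 300 s single dissociation; reference-channel and blank subtracted.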

[9] = molecular target: T1, CEACAM1 (Sino Biological); test: SPR multi-cycle, IgG on Protein A
Method: Multi-cycle kinetics analysis was performed on the twelve lead antibodies using a Biacore T200 instrument running Biacore T200 Evaluation Software V3.0.1 (Uppsala, Sweden) to establish an accurate affinity for CEACAM1. The purified antibodies were diluted to a concentration of […] in HBS-P+. At the start of each cycle, each antibody was captured on the Protein A surface to give an RL of ˜100 RU. Following capture, the surface was allowed to stabilize. Kinetic data was obtained using a flow rate of […] to minimize any potential mass transfer effects. For the kinetics analysis, CEACAM1 was used. Multiple repeats of the blank ([…]) and a repeat of a single concentration of the analyte were programmed into the kinetic run in order to check the stability of both the surface and analyte over the kinetic cycles. For kinetic analysis, a two-fold dilution range was selected from 200 to 3.125 nM CEACAM1. The association phase of CEACAM1 was monitored for 275 seconds and the dissociation phase was measured for 250 seconds. Regeneration of the Protein A surface was conducted using two injections of 10 mM glycine-HCL pH 1.5 at the end of each cycle.
The signal from the reference channel Fc1 was subtracted from that of Fc2, Fc3 and Fc4 to correct for differences in non-specific binding to a reference surface, and a global Rmax parameter was used in the 1-to-1 binding model. The relative KD was calculated by dividing the KD of the RSB02 Parent by that of the humanized and affinity matured variants on the same chip.

B1: Parent (scFv)
scFv: EVQLLESGGGLVQPGGSLRLSCAASGFSFSDYYLYWVRQAPGKGLEWVATISVGGGQTSYADSVKGRFTISRDNSKNTLYLQMNSLRAEDTAMYYCTRGLYYGPAWFAYWGQGTLVTVSSGGGGSGGGGSGGGGSDIVMTQSPDSLAVSLGERATINCKSSQSLLNSANQKNYLAWYQQKPGQPPKLLIYFASTRESGVPDRFSGSGSGTDFTLTISSLQAEDVAVYYCQQHYSTPWTFGGGTKVEIK
notes: also called parent humanized scFv; parental RSB02 scFv; not shown: C-terminal Flag tag from phagemid pANT65
B1: binds [1].

B2: VH1/Vκ4 (antibody, IgG4, V domains shown)
VH: EVQLLESGGGLVQPGGSLRLSCAASGFSFSDYYLYWVRQAPGKGLEWVATISVGGGNTSYPDSVKGRFTISRDNSKNTLYLQMNSLRAEDTAMYYCTRGLYYGPAWFAYWGQGTLVTVSS
VL: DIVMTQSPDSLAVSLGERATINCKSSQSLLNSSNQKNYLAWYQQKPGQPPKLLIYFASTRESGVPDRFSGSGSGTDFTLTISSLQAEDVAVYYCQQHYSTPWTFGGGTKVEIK
notes: IgG4 (S241P), kappa; also called VH1/VK4
In the case of B2, the relative fluorescence intensity [2] is reported as 1.19, the relative fluorescence intensity [3] is reported as 81.1 and the “average relative IC50 (normalized to chimeric antibody)” value [4] is reported as 4.4 ratio. The Kd [5] was 143 nM and the “relative KD to chimeric parental antibody” value [5] was 3.3 ratio.

B3: He14/L1 (antibody, IgG4, V domains shown)
VH: B2 VH with N57Q, P61A, A105S, F107V
VL: DIVMTQSPDSLAVSLGERATINCKSSQSLLNSANQKNYLAWYQQKPGQPPKLLIYFASTRESGVPDRFSGSGSGTDFTLTISSLQAEDVAVYYCQSHYPFYYTFGGGTKVEIK
notes: IgG4 S241P, kappa; also called He14 / 1
With B3 the binding result [6] was “no binding (tested: 1.67 µg/mL)”, the binding result [7] was “no binding (tested: 1.67 µg/mL)” and the Kd [8] was 69 nM. The “fold better than Parent (KD)” value [8] was 2.3 fold, the Kd [9] was 67.3 nM and the koff [9] was 0.00724 s⁻¹. The kon [9] was 108000 M⁻¹ s⁻¹ and the “relative KD to Parent” value [9] was 1.83 ratio.
